Experiments:
Assay in all cases: purified protein
purified protein [1] = substrate: C[C@H](O)[C@H]1OC(=O)[C@@H](O)[C@@H]1O; format: biochemical, Burkholderia multivorans; settings: pH 8.3, 2.5 mM BICINE, 0.2 M NaCl, 1% DMSO, 30 °C
purified protein [2] = substrate: C[C@H]1C[C@@H](O)[C@H](O)C(=O)O1; format: biochemical, Burkholderia multivorans; settings: pH 7.1, 2.5 mM MOPS, 0.2 M NaCl, 1% DMSO, 30 °C
purified protein [3] = substrate: O=C1O[C@@H](CO)[C@@H](O)[C@@H]1O; format: biochemical, Burkholderia multivorans; settings: pH 8.3, 2.5 mM BICINE, 0.2 M NaCl, 1% DMSO, 30 °C
purified protein [4] = substrate: O=C1O[C@H](CO)[C@@H](O)[C@@H]1O; format: biochemical, Burkholderia multivorans; settings: pH 8.3, 2.5 mM BICINE, 0.2 M NaCl, 1% DMSO, 30 °C
purified protein [5] = substrate: O=C1O[C@H]([C@@H](O)CO)[C@@H](O)[C@@H]1O; format: biochemical, Burkholderia multivorans; settings: pH 8.3, 2.5 mM BICINE, 0.2 M NaCl, 1% DMSO, 30 °C
purified protein [6] = substrate: C[C@H](O)[C@H]1OC(=O)[C@@H](O)[C@@H]1O; format: biochemical, Burkholderia ambifaria; settings: pH 8.3, 2.5 mM BICINE, 0.2 M NaCl, 1% DMSO, 30 °C
purified protein [7] = substrate: C[C@H]1C[C@@H](O)[C@H](O)C(=O)O1; format: biochemical, Burkholderia ambifaria; settings: pH 7.1, 2.5 mM MOPS, 0.2 M NaCl, 1% DMSO, 30 °C
purified protein [8] = substrate: O=C1O[C@@H](CO)[C@@H](O)[C@@H]1O; format: biochemical, Burkholderia ambifaria; settings: pH 8.3, 2.5 mM BICINE, 0.2 M NaCl, 1% DMSO, 30 °C
purified protein [9] = substrate: O=C1O[C@H](CO)[C@@H](O)[C@@H]1O; format: biochemical, Burkholderia ambifaria; settings: pH 8.3, 2.5 mM BICINE, 0.2 M NaCl, 1% DMSO, 30 °C
purified protein [10] = substrate: O=C1O[C@H]([C@@H](O)CO)[C@@H](O)[C@@H]1O; format: biochemical, Burkholderia ambifaria; settings: pH 8.3, 2.5 mM BICINE, 0.2 M NaCl, 1% DMSO, 30 °C
purified protein [11] = substrate: NC(=O)c1ccc[n+]([C@@H]2O[C@H](COP(=O)(O)OP(=O)(O)OC[C@H]3O[C@@H](n4cnc5c(N)ncnc54)[C@H](O)[C@@H]3O)[C@@H](O)[C@H]2O)c1; format: biochemical, Burkholderia multivorans; settings: 200 μM L-fucose, pH 8.0, 50 mM BICINE, 30 °C, varied: cofactor
purified protein [12] = substrate: NC(=O)c1ccc[n+]([C@@H]2O[C@H](COP(=O)(O)OP(=O)(O)OC[C@H]3O[C@@H](n4cnc5c(N)ncnc54)[C@H](OP(=O)(O)O)[C@@H]3O)[C@@H](O)[C@H]2O)c1; format: biochemical, Burkholderia multivorans; settings: 200 μM L-fucose, pH 8.0, 50 mM BICINE, 30 °C, varied: cofactor

B1: BmulJ_04915 (Burkholderia multivorans ATCC 17616) (protein)
chain: MGALRIDSHQHFWRYRAADYPWIGAGMGVLARDYLPDALHPLMHAQALGASIAVQARAGRDETAFLLELACDEARIAAVVGWEDLRAPQLAERVAEWRGTKLRGFRHQLQDEADVRAFVDDADFARGVAWLQANDYVYDVLVFERQLPDVQAFCARHDAHWLVLDHAGKPALAEFDRDDTALARWRAALRELAALPHVVCKLSGLVTEADWRRGLRASDLRHIEQCLDAALDAFGPQRLMFGSDWPVCLLAASYDEVASLVERWAESRLSAAERSALWGGTAARCYALPEPADARL
**Q.** What does the source list for B1?
**A.** Km (purified protein [1]): 1400 ± 200 µM; kcat (purified protein [1]): 140 ± 8 s⁻¹; Km (purified protein [2]): 130 ± 30 µM; kcat (purified protein [2]): 994 ± 64 s⁻¹; Km (purified protein [3]): 1500 ± 300 µM; kcat (purified protein [3]): 14 ± 1 s⁻¹; Km (purified protein [4]): 700 ± 50 µM; kcat (purified protein [4]): 59 ± 2 s⁻¹; Km (purified protein [5]): 1100 ± 200 µM; kcat (purified protein [5]): 32 ± 2 s⁻¹

B2: Bamb_1224 (Burkholderia ambifaria AMMD) (protein)
chain: MTFRIDAHQHFWQMASRDGYWPPQTLDAIYRDFGPQDLEPLLARSGVQRTVVVQSLPTQEDTRYLLDVASRTSFVAAVVGWVDLKSTDAPADIASLARDPKFRGIRPMLQDLADDDWIDDPVLEPAIDAMLAHDLAFDALVTPRHLPALLAFARRYPRLRIVIDHAAKPPIASGRSEAWHVAMSELAAHPNVHCKLSGLWTEAGPHPDLLRVEPYVRAVCDWFGASRLIWGSDWPVSRLAGHFGDYGAWLAWCEQCCDRFLGPDARARVFGGNACHFYRIDRPSGDQHAQ
**Q.** Which results are given for B2?
**A.** Km (purified protein [6]): 900 ± 100 µM; kcat (purified protein [6]): 89 ± 4 s⁻¹; Km (purified protein [7]): 210 ± 20 µM; kcat (purified protein [7]): 1530 ± 47 s⁻¹; Km (purified protein [8]): 1300 ± 300 µM; kcat (purified protein [8]): 6.0 ± 0.5 s⁻¹; Km (purified protein [9]): 800 ± 100 µM; kcat (purified protein [9]): 19 ± 1 s⁻¹; Km (purified protein [10]): 1300 ± 100 µM; kcat (purified protein [10]): 55 ± 2 s⁻¹

B3: BmulJ_04919 (Burkholderia multivorans ATCC 17616) (protein)
chain: MDLNLQDKVVIVTGGASGIGGAISMRLAEERAIPVVFARHAPDGAFLDALAQRQPRATYLPVELQDDAQCRDAVAQTIATFGRLDGLVNNAGVNDGIGLDAGRDAFVASLERNLIHYYAMAHYCVPHLKATRGAIVNISSKTAVTGQGNTSGYCASKGAQLALTREWAVALREHGVRVNAVIPAEVMTPLYRNWIATFEDPEAKLAEIAAKVPLGRRFTTPDEIADTAVFLLSPRASHTTGEWLFVDGGYTHLDRALV
**Q.** With B3 as the protein, how does the Km (purified protein [11]) read?
**A.** Its Km is 28 ± 4 µM.

**Q.** And the Km (purified protein [12])?
**A.** Its Km is 4.0 ± 0.5 µM.

**Q.** And the kcat (purified protein [12])?
**A.** Its kcat is 11 ± 0.2 s⁻¹.

**Q.** And the kcat/Km (purified protein [12])?
**A.** The kcat/Km was 3e+06 M⁻¹ s⁻¹.

— paper PMC3542637
